Where no end group is shown, it is not given here. [ ]: non-standard residue; d: D form.
How the values were obtained:
[1] = target: NbALFA^ST (NbALFA clone 1G5); assay: off-rate assay: peptide elution from NbALFA^ST resin; tag position N
[2] = target: NbALFA^ST (NbALFA clone 1G5); assay: off-rate assay: peptide elution from NbALFA^ST resin; tag position C

Sequence of NbALFA^ST (NbALFA clone 1G5) (VHH, as listed by the source): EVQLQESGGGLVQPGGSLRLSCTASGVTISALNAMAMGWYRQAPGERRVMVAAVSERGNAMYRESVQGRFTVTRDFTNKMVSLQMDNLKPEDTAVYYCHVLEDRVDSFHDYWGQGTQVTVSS

Binder | t1/2 [1] | t1/2 [2]
MSGLEQELRRRLTP[code s] (not fully specified; printed as MSGLEQELRRRLTPs) […s (SEQ ID NO: 110)] | < 2 min | 
GPSGLEQELRRRL [gp…. (SEQ ID NO: 108)] |  | < 2 min

From patent publication US20260103490A1
